Experiments:
[1] = substrate: O=C(O)c1cc(=O)[nH]c(=O)n1[C@@H]1O[C@H](COP(=O)(O)O)[C@@H](O)[C@H]1O; assay: Affinity for Methanobacterium thermoautotrophicum ODCase at 55 degreeC by ITC method
[2] = substrate: O=C(O)c1cc(=O)[nH]c(=O)n1[C@@H]1O[C@H](COP(=O)(O)O)[C@@H](O)[C@H]1O; assay: Affinity for Methanobacterium thermoautotrophicum ODCase at 25 degreeC by ITC method
[3] = substrate: O=C(O)c1cc(=O)[nH]c(=O)n1[C@@H]1O[C@H](COP(=O)(O)O)[C@@H](O)[C@H]1O; assay: Affinity for Plasmodium falciparum ODCase at 25 degreeC by UV-based assay
[4] = substrate: O=C(O)c1cc(=O)[nH]c(=O)n1[C@@H]1O[C@H](COP(=O)(O)O)[C@@H](O)[C@H]1O; assay: Affinity for Saccharomyces cerevisiae ODCase at 25 degreeC by UV-based assay

B1: Orotidine 5'-phosphate decarboxylase (Methanobacterium thermoautotrophicum), O26232 (protein)
chain: MRSRRVDVMDVMNRLILAMDLMNRDDALRVTGEVREYIDTVKIGYPLVLSEGMDIIAEFRKRFGCRIIADFKVADIPETNEKICRATFKAGADAIIVHGFRGADSVRACLNVAEEMGREVFLLTEMSHPGAEMFIQGAADEIARMGVDLGVKNYVGPSTRPERLSRLREIIGQDSFLISPGVGAQGGDPGETLRFADAIIVGRSIYLADNPAAAAAGIIESIKDLLNP
Question: With B1 as the protein, how does the Km [1] read?
Answer: The Km was 5 µM.

Question: What about the Km [2] of the same protein?
Answer: The Km was 2 µM.

B2: Orotidine phosphate decarboxylase (Plasmodium falciparum), Q8T6J6 (protein)
chain: MGFKVKLEKRRNAINTCLCIGLDPDEKDIENFMKNEKENNYNNIKKNLKEKYINNVSIKKDILLKAPDNIIREEKSEEFFYFFNHFCFYIINETNKYALTFKMNFAFYIPYGSVGIDVLKNVFDYLYELNIPTILDMKINDIGNTVKNYRKFIFEYLKSDSCTVNIYMGTNMLKDICYDEEKNKYYSAFVLVKTTNPDSAIFQKNLSLDNKQAYVIMAQEALNMSSYLNLEQNNEFIGFVVGANSYDEMNYIRTYFPNCYILSPGIGAQNGDLHKTLTNGYHKSYEKILINIGRAITKNPYPQKAAQMYYDQINAILKQNMES
Question: For B2, which Km [3] is on record?
Answer: Its Km is 13 µM.

B3: Orotidine 5'-phosphate decarboxylase (Saccharomyces cerevisiae S288c), P03962 (protein)
chain: MSKATYKERAATHPSPVAAKLFNIMHEKQTNLCASLDVRTTKELLELVEALGPKICLLKTHVDILTDFSMEGTVKPLKALSAKYNFLLFEDRKFADIGNTVKLQYSAGVYRIAEWADITNAHGVVGPGIVSGLKQAAEEVTKEPRGLLMLAELSCKGSLATGEYTKGTVDIAKSDKDFVIGFIAQRDMGGRDEGYDWLIMTPGVGLDDKGDALGQQYRTVDDVVSTGSDIIIVGRGLFAKGRDAKVEGERYRKAGWEAYLRRCGQQN
Question: For B3, which Km [4] is on record?
Answer: Its Km is 0.7 µM.
